# Laboratory results as given in the supplement of paper PMC9732359.
# ± gives the uncertainty stated by the source.
# Experiment: protein stability index of a GFP-peptide fusion (yeast GPS) (PSI 1-4); higher = more stable; sorted into four equal gates, so the index is relative within each strain
# Details: san1∆
# In short: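 Tiled 17-residue peptides from yeast proteins were fused downstream of GFP on a plasmid that also expresses Cherry, and the pooled library was carried in yeast. Mid-log cultures grown in leucine-free medium were sorted into four equal gates by GFP/Cherry fluorescence ratio. Plasmids from each gate were PCR-amplified and Illumina-sequenced, and reads were assigned to strains by barcodes. Each peptide's protein stability index is the sum, over gates, of the gate's read frequency multiplied by its gate number.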
row,Sequence,protein stability index
1,PRMYHIGLRQFQQIQYE [POP1],2.25 ± 0.095
2,PRRYGKGSRQCRVCSSH [RPS29A],2.92 ± 0.042

# Same assay, conditions: ubr1∆
row,Sequence,protein stability index
1,NTFKVLSKFFFFIFVFN [COB],1.29 ± 0.077
2,NTHWGLVCPAETPEGQA [RPB2],1.14 ± 0.097
3,NTLEEFEHGRTPAEMSR [FAS2],3.57 ± 0.15
4,NTLLQQQNYSKVLLPSI [SWI1],3.09 ± 0.095
5,NTLNIDNTARVIFDASI [BRN1],2.37 ± 0.032
6,NTNGTNASANSTSFSFN [YOR098C/NUP1],3.06 ± 0.031
7,NTNNNNTNNNNNPANNT [SWI1],3.3 ± 0.044
8,NTQLHGPSATDPETTAT [RGR1],2.81 ± 0.068
9,NTSAQHVESDKITAKTQ [IRR1],3.08 ± 0.042
10,NTSVLMKLKLMIVYYKD [YCS4],1.29 ± 0.11
11,NTVDGDLLKLVHLSNGY [FAS1],2.46 ± 0.064
12,NTYKRLVIGIFKRDLLR [YJL039C/NUP192],1.59 ± 0.055
13,NVESVGSIPVDQVVVRG [RPB3],2.23 ± 0.059
14,NVFVILMDKCLPKVRIR [DIS3],1.65 ± 0.047
15,NVGLPILKSLKNRSNRK [YOR098C/NUP1],3.11 ± 0.049
16,NVKNYSTTQEILEFITA [RPC34],1.25 ± 0.15
17,NVLNRIQELEDQRDELL [ITC1],3.56 ± 0.12
18,NVNKKALGQDTEKMEEQ [MED11],3.04 ± 0.05
19,NVPGVETANVASLNLLQ [RPL4A],2.87 ± 0.041
20,NVSLIKIEGVATPQEAQ [RPL33B],2.61 ± 0.055
21,NVTMIDDLIHFTLKQWN [COR1],2.74 ± 0.099
22,NVVPYHRNTSDYYYEDA [SWI1],3.08 ± 0.055
23,NYAMTRNILHNTVPQVT [SRB5],1.74 ± 0.038
24,NYHPMNIDETSDEVSRG [SMC4],3.14 ± 0.041
25,NYIENMNEMCKKINAKE [RPN8],3 ± 0.039
26,NYKQLTLVGGGAKITPE [RRP43],2.01 ± 0.15

row,Sequence,protein stability index
1,NYLKYLEYWCNPPYSQC [SOH1],2.28 ± 0.036
2,NYLLKRNEDARRNLRYG [RPO31],3.56 ± 0.056
3,NYLRQQCNYSSLVFNRK [PRE5],2.75 ± 0.088
4,NYNRIAKICALLFFNFS [NUT1],1.61 ± 0.031
5,PAELEGLLDLERVIVVT [FAS2],1.77 ± 0.11
6,PALLRPGRLDRKIEFPS [RPT3],3 ± 0.066
7,PAMAMEDLKNFIFQIIE [SRB8],1.71 ± 0.05
8,PASNILRRTTQRVFDET [YDL116W/NUP84],2.62 ± 0.1
9,PAWRVWLNFLRGTIPLL [PRP8],2.96 ± 0.083
10,PDFLSKYSAITSSIFQE [NUT1],2 ± 0.033
11,PDLNIDRNNSTNQIFQS [SIN4],2.19 ± 0.15
12,PDTSNEICDLAYQYVRA [SRB2],3 ± 0.041
13,PDYYMIIKYPVAFDNIN [SNF2],2.44 ± 0.15
14,PEDLNSLYIYYLIKLLG [SIR2],1.95 ± 0.056
15,PEEATTIFSVMVEWLES [PRP8],1.77 ± 0.13
16,PEIDNLDDLVVLKKKNI [RRP6],2.79 ± 0.066
17,PEIGNRKINLFYLYMLV [SWI1],2.22 ± 0.094
18,PENITKREASRGFFDIL [MCD1],3.21 ± 0.058
19,PEREVLVRELYQWRDLI [RRP6],2.58 ± 0.049
20,PERWLPLRDRSTYRPKK [SRP72],3.64 ± 0.28
21,PEYYSTARVMGGLKNGV [DIS3],3.01 ± 0.082
22,PFQVSSFVKETKLHSGD [SRB8],2.91 ± 0.061
23,PFSEGVTFSVMPPKKSW [SMC4],2.57 ± 0.077
24,PFTASQSNINTNAPLRT [YIL149C/MLP2],2.08 ± 0.053
25,PFVLAENMWPFSYQEVE [CDC53],2.25 ± 0.028
26,PGAKPLQVGDVVSTTAV [FAS1],2.66 ± 0.065

row,Sequence,protein stability index
1,PGGQAALRALARSGLRI [RPS14A],1.92 ± 0.022
2,PGNRNADNVDKILEQFE [FAS2],2.5 ± 0.087
3,PGPYPNEQAARAANQGA [CYT1],2.3 ± 0.05
4,PGSRASSRFIKGGSLYG [RPN2],2.14 ± 0.069
5,PHLIIQNHNSKSTDNSA [IRR1],2.78 ± 0.034
6,PHTVIRRKTTKQNSSSD [YDL088C/ASM4],2.9 ± 0.043
7,PIFNYIFTEKIYKSIFN [YJL039C/NUP192],1.16 ± 0.039
8,PIGRHEELLAQYESQAP [SWP82],2.07 ± 0.037
9,PINLENNDGSYGLFLKY [SRB8],1.81 ± 0.069
10,PINLPPQIAQLPLATQQ [SNF5],2.27 ± 0.053
11,PISISNAPTFNPKYDTS [YAR002W/NUP60],3.07 ± 0.06
12,PISKHSKQAIYTRATAS [RPS25A],1.81 ± 0.038
13,PKDTSAATMTSAPPPAL [RGR1],2.85 ± 0.097
14,PKELGGLGMISASHILI [PRP8],2.41 ± 0.047
15,PKFDVGALMALHGEGSG [RPS1A],1.57 ± 0.089
16,PKGVILYGAPGTGKTLL [RPT2],3.13 ± 0.22
17,PKKEYDDDAVRREVQIQ [NSL1],2.38 ± 0.21
18,PKKFGGKGARSRFQKSY [RPS16A],2.93 ± 0.1
19,PKLESVKWQYDPNNPVD [SNF12],2.55 ± 0.031
20,PKNLSTPSTSSNGEFIP [CSE2],2.93 ± 0.043
21,PKSASNTSSKRQKKKPT [IRR1],2.96 ± 0.072
22,PKVSAGDSGISPEESKA [SIR4],3.17 ± 0.059
23,PLELSAPIGKHYVVLDT [DIS3],2.39 ± 0.11
24,PLKRAIWLIKCCYFIEW [SRB8],2.77 ± 0.071
25,PLKTELEANGRSLEKVN [SSN2],3.55 ± 0.08
26,PLLSNYASKINRAEGPE [RGR1],2.55 ± 0.082

row,Sequence,protein stability index
1,PLQGIFHNAVFNSFRRF [QCR8],1.96 ± 0.031
2,PLQSIPEIGNRKINLFY [SWI1],1.43 ± 0.064
3,PLRENTNVLDVKDKEED [YDL116W/NUP84],2.99 ± 0.11
4,PLRMETIPILESDSKAT [DSN1],2.27 ± 0.044
5,PLSESLRLVDDDENNPS [RRP6],3.08 ± 0.084
6,PLSLTHRDKNKMDMICR [DIS3],3.16 ± 0.18
7,PMASSSSFGSESLTFNE [SWI1],3.099 ± 0.029
8,PMETLLSGLSADKPFTR [YML031W/NDC1],2.85 ± 0.034
9,PNFEASFVHGVVGQLFQ [SMC2],3.18 ± 0.12
10,PNFLIMQGKITKVLNMK [SMC2],2.88 ± 0.063
11,PNISHSNIDYQTLLANS [SNF2],2.82 ± 0.11
12,PNLIEKMVAKGLNDLVE [BRR2],2.99 ± 0.18
13,PNNSRDDYKDLTCSLYE [IRR1],3.24 ± 0.087
14,PNPTPSMINSVSPTNVM [PGD1],2.27 ± 0.028
15,PNSNVELAGGNASLTIE [SMC1],3.04 ± 0.27
16,PNVSDKYYLEESNVNDS [NUT1],3.17 ± 0.14
17,PPLTYKNDTKILVLALE [PRP8],2.04 ± 0.029
18,PPPPGFEEDSDLALPPP [PRP8],3.35 ± 0.057
19,PPPPQQSQPIANQSATS [SNF5],3.05 ± 0.041
20,PQNTTATTGGLFGSKPQ [YGR119C/NUP57],3.53 ± 0.17
21,PQQAQQQPNPLHGLTPT [GAL11],3.05 ± 0.035
22,PQQSGKKLLINKDASLA [DPB4],2.22 ± 0.055
23,PRKLVLSSGENRYAFSQ [SMC4],1.59 ± 0.054
24,PRMYHIGLRQFQQIQYE [POP1],1.48 ± 0.1
25,PRRYGKGSRQCRVCSSH [RPS29A],2.91 ± 0.038
